Experimental findings from paper PMC12905498 (Biochemical Journal, 2026) are described below.

B1: Plasmodium vivax HAP2 domain 3 (domain or fragment)
chain: VSTATITHITTPKNCSSNQSESKDCVLIVHTWNNSANVGSNFSCHVICTDKETGKIATHIGPISPVNAFIDANKNYAFYFIIKFLINKEIKTMCKAVLRDSNGKECSKEDFLLTSKE
notes: source: Sf21 cells (baculovirus), purified as PfHAP2 D3 (Ni-NTA, SEC)
B2: anti-PbHAP2 D3 mAb 6.14 (variable regions in AbVec-hIgG1 and AbVec-IgKappa) (antibody, V domains shown)
VH: EVQLVESGGGLVKPGGSLKLSCAASEFTFSDYGMHWVRQAPEKGLEWVASISSGSNSIYYSDTVKGRFTISRDNAKSILFLQMTSLRSEDTAMYYCSREAYFAMDYWGQGTSVTVSS
VL: DIQMTQSPSSLSAILGGKVTITCKASQDIHKYIAWYQHKPGKGPRLLIYYTSTLQPGIPSRFSGSGSGRDYSFSISNLEPEDVATYFCLQYDNLYTFGGGTKVEIE
notes: also called anti-PbHAP2 mAb 6.14; source: Expi293 cells, transient transfection (1:1 light and heavy chain plasmids), purified as the nanobody-Fcs (HiTrap PrismA)
B3: Plasmodium berghei HAP2 domain 3 (domain or fragment)
chain: VSIATITHVTIPNDCASNNSNSNECVLIIHVWNNSKFVGSNFSCSIACTNKETDQLASHINPIAPVRAFIGPNKNYAFYFIIKFLINKEITTLCKAIVKDSNGKECSIEEFELQSKESVH
notes: as for B1
B4: Plasmodium falciparum HAP2 domain 3 (PfHAP2 D3 HisAvi), deglycosylated (domain or fragment)
chain: VSYGTITHITIPKDCSSNQTNSKECILVVHTWNNNKTIGANFSCHVLCVDKSTQQVATHISPISKINAHIDANKNYAFYFIIKFLINKKITSNCTAILKDADGRECSKLSFNLTSKETIN
B5: Pfs48/45 Domain 3 (domain or fragment)
chain: KVIHGCNFSSNVSSKHTFTDSLDISLVDDSAHISCNVHLSEPKYNHLVGLNCPGDIIPDCFFQVYQPESEELEPSNIVYLDSQINIGDIEYYEDAEGDDKIKLFGIVGSIPKTTSFTCICKKDKKSAYMTVTIDSA
notes: as for B1

Conditions in all cases: both partners purified
Experiment [1] addresses T1, WNbFc 333 (nanobody WNb 333 fused to hinge and Fc of human IgG1) (alpaca).
T1 construct: also called WNb 333 nanobody-Fc; source: Expi293 cells, transient transfection, purified (HiTrap PrismA)
The experiment is described as follows: BLI.

The target of experiment [2] is B4. The experiment is described as follows: BLI; affinity: nanobody-Fcs or antibodies (5 µg/ml) loaded on anti-human IgG Fc Capture (AHC) tips, two-fold dilution series of antigen; PBS pH 7.4, 0.1% BSA, 0.05% TWEEN-20, 25°C; 1:1 Langmuir model; mean of two experiments.
The target of experiment [3] is T2, WNbFc 334 (nanobody WNb 334 fused to hinge and Fc of human IgG1) (alpaca).
T2 construct: also called WNb 334 nanobody-Fc; source: Expi293 cells, transient transfection, purified (HiTrap PrismA)
The description is as above.

The target of experiment [4] is T1, WNbFc 333 (nanobody WNb 333 fused to …). Described as above.
Experiment [5] deals with T3, WNbFc 335 (nanobody WNb 335 fused to hinge and Fc of human IgG1) (alpaca).
T3 construct: also called WNb 335 nanobody-Fc; source: Expi293 cells, transient transfection, purified (HiTrap PrismA)
Described as above.

Experiment [6] addresses T1, WNbFc 333 (nanobody WNb 333 fused to …). The experiment is described as follows: ELISA.
In experiment [7] the target is T2, WNbFc 334 (nanobody WNb 334 fused to …). The experiment is described as follows: ELISA.
Experiment [8] has as its target T3, WNbFc 335 (nanobody WNb 335 fused to …). The experiment is described as follows: ELISA.

Consider B1, for which the binding result in experiment [1] is “binds”.

Consider B2, for which the binding result in experiment [2] is listed as “no binding”.

As for B3, the binding result in experiment [1] and in experiment [3] was “binds” each time.

For B4, the equilibrium dissociation constant (Kd) was 15.8 nM in experiment [4], 26.1 nM in experiment [3] and 50.8 nM in experiment [5].

Take B5: the binding result in experiment [6], in experiment [7] and in experiment [8] was “no binding (tested: 125 nM)” throughout.
